From publication PMC9969106 come the findings set out here.

Conditions in all cases: glycan lost; control: GlyRα1WT
Data set [1] in a line: whole-cell patch-clamp dose-response, HEK293. Background: In patch-clamp work, channel activity is measured electrically.
Data set [2] can be described thus: whole-cell patch-clamp, saturating 1 mM glycine.
Data set [3] is described as follows: whole cell fraction western blot, normalized to pan-cadherin. For orientation: In western blotting, separated proteins are transferred to a membrane and probed.
The nature of data set [4]: whole-cell patch-clamp, 100 μM glycine.

B1: GlyRα1: N38Q (protein)
parent chain: MYSFNTLRLYLWETIVFFSLAASKEAEAARSAPKPMSPSDFLDKLMGRTSGYDARIRPNFKGPPVNVSCNIFINSFGSIAETTMDYRVNIFLRQQWNDPRLAYNEYPDDSLDLDPSMLDSIWKPDLFFANEKGAHFHEITTDNKLLRISRNGNVLYSIRITLTLACPMDLKNFPMDVQTCIMQLESFGYTMNDLIFEWQEQGAVQVADGLTLPQFILKEEKDLRYCTKHYNTGKFTCIEARFHLERQMGYYLIQMYIPSLLIVILSWISFWINMDAAPARVGLGITTVLTMTTQSSGSRASLPKVSYVKAIDIWMAVCLLFVFSALLEYAAVNFVSRQHKELLRFRRKRRHHKSPMLNLFQEDEAGEGRFNFSAYGMGPACLQAKDGISVKGANNSNTTNPPPAPSKSPEEMRKLFIQRAKKIDKISRIGFPMAFLIFNMFYWIIYKIVRREDVHNQ
With B1, the “other: glycine potency, EC50” value in data set [1] is recorded as “decreases, 206 vs 85”. Besides, the “other: channel current, other: current amplitude” value in data set [2] was “no change, 5.0 ± 0.8 vs 6.0 ± 0.6”; in data set [4], “decreases, 1.0 ± 0.3 vs 3.6 ± 0.5”. For the same protein, the “expression_or_secretion, other: relative expression” value in data set [3] is listed as “no change, 0.57 ± 0.13 vs 1.0 ± 0.16, GlyRα1WT 1.0 ± 0.16; GlyRα1N38Q 0.57 ± 0.13; p = 0.1118”.
